# Reference: the DeepSol protein solubility set
# Assay: soluble on expression in E. coli; label from the status in PepcDB or PDB records
row,Sequence,soluble on expression in E. coli
1,MGSDKIHHHHHHMEAAAQFFVESPDVVYGPEAIEAQYEYRTTRVSREGGVLKVHPTSTRFTFRTARQVPRLGVMLVGWGGNNGSTLTAAVLANRLRLSWPTRSGRKEANYYGSLTQAGTVSLGLDAEGQEVFVPFSAVLPMVAPNDLVFDGWDISSLNLAEAMRRAKVLDWGLQEQLWPHMEALRPRPSVYIPEFIAANQSARADNLIPGSRAQQLEQIRRDIRDFRSSAGLDKVIVLWTANTERFCEVIPGLNDTAENLLRTIELGLEVSPSTLFAVASILEGCAFLNGSPQNTLVPGALELAWQHRVFVGGDDFKSGQTKVKSVLVDFLIGSGLKTMSIVSYNHLGNNDGENLSAPLQFRSKEVSKSNVVDDMVQSNPVLYTPGEEPDHCVVIKYVPYVGDSKRALDEYTSELMLGGTNTLVLHNTCEDSLLAAPIMLDLALLTELCQRVSFCTDMDPEPQTFHPVLSLLSFLFKAPLVPPGSPVVNALFRQRSCIENILRACVGLPPQNHMLLEHKMERPGPSLKRVGPVAATYPMLNKKGPVPAATNGCTGDANGHLQ,not soluble
2,MELACHECGFKGEVQDFAFLCKNGCPACGESDMRQCPRCGAHVMFSRAAALEKEEMQMRDLCRELAGIERSDKPEVQKRAMELIGGLRRMNERWNIPQLGDFIKQRSRELFF,not soluble
3,MSKEDNNAVVGHQPATKVGGRRIADHGNQRAQNSTNSSDAVREAMDFDLPAKMEKAYPTAAVKQVHEKPTPAIQPAHYNRATGNGQVRNIPQKQNH,not soluble
4,GPHMSVSESAVFAYESSVHSTNVLLSLNDQRKKDVLCDVTVLVEGQRFRAHRSVLAACSSYFHSRIVGQTDAELTVTLPEEVTVKGFEPLIQFAYTAKLILSKDNVDEVCRCVEFLSVHNIEESCFQFLKFKFLDSTS,soluble
5,MGSDKIHHHHHHMINHHPKFELIQAFVNGDLPASLSAGIAIHADMCPVCQQTIAQFTEQVAENSFEEEYLDRFIIDDNEALEAIATIDFDHMIDNIVESSDIAVVVPKVEKTVSFNDTTYTLPAALNSMEMGKHAQIGKLTRARIQLNENEIHSSLLHIQPGGGVPEHTHKGFELTVLLAGSFHDESGEYVKGDFIMLDSSHQHHPISSNGCLCYTVANDALHFTHGINKLLNPIGSFIY,not soluble
6,MSLNEQAPVIAVLLTERTRRMMLDDAAIAQLNALGEVRWPTGAAIDATDVDQLLHGAVACLTGWGTPPFDPAARQRHPQLALVAHSAGSVRTLVPARLFDDGIRVTHAASKIAASVAEFVVAEALLAMRGIHRLHHQLRNGGEWLDVRAAVPQKLLGSRTVGIVGAGYVGRAVMRLLVPFGCRVLVVDPFLHDSEAAALGVFRAGLNDMLAQADMVSLHAPVLPETRRMIGARELALLRPGTLFINTARAELVDEAALLAEIRSGRIEAALDVFDNEPLPQDSPFRDPALANVTISPHAAGHTNEAHLAQGQAMVDEIGRLLRREPLQHEVSREGHHHHHH,not soluble
7,MLEVKELVKTFGDFKAVDHVSFTIPDGKILGLIGQNGAGKTTTFRLILNFLTQDSGSVLWNGQPLNEKEYNIIGYLPEERGLYPKITIEDQLIYFASLRGKTKKEIEPKIDFWMEKFQVKGKKTDKVKSLSKGNQQKVQLIATLIHEPKLIILDEPFSGLDPVNAELLKDGIIELKNQGSCVIFSSHNMDNVEKICDHLVMLKNGRMVLDGQVHEIRQQFGRTKLFLESPLSVEEVAATAGVKEAHLRQDGVLEATLENAEVGKVLFDKATANGYIPMFNQQPPTLEEIFKMKVGGQDE,not soluble
8,GPGSMMRRVGDYEILDVVGEGAYSKVKRVRHIPTGCMFVAKIVPKTNQQVENDVRLEISILRRLKHKNIVQLIEILESTNNYYIILEPVMGGDLCDIIVGMDRPLPEQDVAALLIQLVAGVRACHRNGVAHRDLKPENLLLGTDGVLKISDFGLSRLHRESNFQASTNEYAHTLTGTLAYLAPEVFGGSYDAFRADIWSMGCIAYVLLTQNFPFGSTTDPHALEVRIRNGEVSVMPSSVSAEAKNLCKWLLSPRPEDRPTLDAVAQHDFFKRYLPAEYLRMTANRKSPIVHGANMNEFSSQVQEEAPSCSPSTATAKRKHQYVRSGSAARTSPSSSAVAGAATSSNRSSESGRDREDLVSHGTQGESDPGGYCGDV,soluble
9,NTDKHIYLEEHISPESQPMLSTYFRSMGKPRSIKENVLTVPQDASPETLALYYFARIYLERYEGVPLPDDMPDLIEFGRKHNMPWVVAEAKLNKAIRMIELDDDWHAELLLHDVIGESRDIGYLALQGRAYRWMGNLEIARNQIHNGLKHYRTAYELLENTVFEIQVAMTLNNIGTVYLDSSDWNRASNYLKQALDVYESSEYEYDNS,not soluble
10,MSLCGLLGILTANGNAEAFVPALERALPCMRHRGPDDAGTWHDADAAFGFNRLSIIDIAHSHQPLRWGPADEPDRYAMTFNGEIYNYVELRKELSDLGYAFNTSGDGEPIVVGFHHWGESVVEHLRGMFGIAIWDTKEKSLFLARDQFGIKPLFYATTEHGTVFSSEKKTILEMAEEMNLDLGLDKRTIEHYVDLQYVPEPDTLHAQISRLESGCTATVRPGGKLEQKRYFKPQFPVQKVVKGKEQDLFDRIAQVLEDSVEKHMRADVTVGSFLSGGIDSTAIAALAKRHNPDLLTFTTGFEREGYSEVDVAAESAAAIGAEHIVKIVSPEEYANAIPKIMWYLDDPVADPSLVPLYFVAAEARKHVKVVLSGEGADELFGGYTIYKEPLSLAPFEKIPSPLRKGLGKLSKVLPDGMKGKSLLERGSMTMEERYYGNARSFNFEQMQRVIPWAKREWDHREVTAPIYAQSRNFDPVARMQHLDLFTWMRGDILVKADKINMANSLELRVPFLDKEVFKVAETIPYDLKIANGTTKYALRRALEQIVPPHVLHRKKLGFPVPMRHWLAGDELFGWAQDTIKESGTEDIFNKQAVLDMLNEHRDGVSDHSRRLWTVLSFMVWHGIFVENRIDPQIEDRSYPVEEGHHHHHH,soluble
11,MGSDKIHHHHHHMQSIVQTNFTGIDGLIIRNEPRPALTDNGVLIAMETLPVVPSDWHKETDPNATAEQALQLPRVIGIGGVGTVIEVGHNRDQKLLHQRVLVMHPKGSYQEFILNTNSDWLFPLPINVSNAEAATLTAGPGVALALTEFIKQNPSDHLVITGANSVIGLILCQLLGSTYPGLTPIVSPDSQAYFNQSLPGYPVYSIEHLQLFHGRTLIIDIAGSEPLLQQLIAAVPRASIASIALQTSNLNVPFTFVHEDFNHQIYCHLIKTVASHKLWLPIGRIFSFAETKKAQHYAKDHHSRGRVLVNLN,not soluble
12,MGALERFGVDFITVDQGNGQWDIQAIEINLRKGGTTHPFMTLKLLTNGRYELSTGLFYSQQGRPKYYIATDNLQKDRYRGLLPNDLMDIIAHHRLHFDSCTETGTVFHLMGCLSQFGKLGLTSIGDSPQQAEDIYNKVVKVLDEETRVNNKQFPLFSDYTFPNLEHHHHHH,not soluble
13,MTEKDYGQVTGMVHSTESFGSVDGPGIRFIIFLQGCKLRCQYCHNPDTWEMETNNSKIRTVNDVLKEALQYKHFWGKKGGITVSGGEAMLQIDFITALFIEAKKLGIHTTLDTCGFTYRPTPEYHQVLDNLLAVTDLILLDLKEIDEKQHKIVTRQPNKNILQFARYLSDKQIPVWIRHVLVPGLTD,not soluble
14,GSWDWNLITGEVCWSDELYHIFGRSPQESGATYDEFLSYVHPDDRDRVDNALKKGLNGESVAGNYRIILGDGEERIVRTEAEVVFDEK,not soluble
15,STFAYIANSESDNISVIDVTSNKVTATIPVGSNPMGAVISPDGTKVYVANAHSNDVSIIDTATNNVIATVPAGSSPQGVAVSPDGKQVYVTNMASSTLSVIDTTSNTVAGTVKTGKSPLGLALSPDGKKLYVTNNGDKTVSVINTVTKAVINTVSVGRSPKGIAVTPDGTKVYVANFDSMSISVIDTVTNSVIDTVKVEAAPSGIAVNPEGTKAYVTNVDKYFNTVSMIDTGTNKITARIPVGPDPAGIAVTPDGKKVYVALSFCNTVSVIDTATNTITATMAVGKNPYASGQFIGSIPVQPVYPSADFKSNITSGYIFLSEPVQFTDLSKDATEWKWDFGDGSSSKKQNPTHTYSETGIYTVRLTVSNSNGTDSQISTVNVVLKGSPTPS,soluble
16,NHYLQAEVVTAFLGLQHAAKRADFNLQPASTYRDFNRQMLIWNAKFNGKRKIHNDASKQIDITTLTDLAKIKAILRWSAVPGASRHHWGTEIDIFDPDLLPQGQHLQLEPWEYQSNGYFAPLIKWLHQHSASFGFYFPFDGIQNSQ,not soluble
17,MAEVITVKQTNMENIYECEFNDGSFRLCTRNLVPNFNVYGERLIKYEGVEYREWNAFRSKLAGAILKGLKTNPIRKGTKVLYLGAASGTTISHVSDIIELNGKAYGVEFSPRVVRELLLVAQRRPNIFPLLADARFPQSYKSVVENVDVLYVDIAQPDQTDIAIYNAKFFLKVNGDMLLVIKARSIDVTKDPKEIYKTEVEKLENSNFETIQIINLDPYDKDHAIVLSKYKG,soluble
18,MSCTRRQFITRVGALAAVSGMAGRVVANTLNINGVRYGMVHDESLCIGCTACMDACREVNTVPEGVSRLTIIRSEPQGTFPDVKYRFFRHSCQHCDHAPCVDVCPTGASFRDAASGIVDVNPDLCVGCQYCIAACPYRVRFIHPVSKTADKCDFCRKTNLKAGKQPACVESCPTKALTFGNLDDPNSDISRLLRQKTTYRYKLALGTKPKVYRVPFNYGEVSQ,not soluble
19,MGSDKIHHHHHHMQEVATEARIGPNSIIQTVAAARAQYGEEAVADWLRRTGRGHLLEAMPDHMLPESEFGDLIADLRFWLGVSAAADVLAQSGDLTAQYVATHRVPVPIRWLLPRLPVGLALRIFLPAIARHAWTFAGSGRFGYTLQPAWRLTLADSVEARGVRATEPVCAYYRAAFEGLLRRVVCDRLRVHEVACRAMGTGRCEFAVELSR,not soluble
20,MGSDKIHHHHHHMIIPHRKPCIESQIKTSGNLDELKMIINDLLYSEKEIQILPSGNSAIHIASEIVSKLNPNSKTLIPDMGGWKGFETYSKLSGLSIEKLKTNLGVVNLEILEEKIKECSAKSLFLTSLAGYLAEQPLKEIAKICSENDCLFIEDVSGKIGGDCGYGDMVVCSTGSPKIINCEYGGFLGFSKKINENLKDKHLKEDIKNLLKTYKMPDIYGKMIEETLISKKSYELCIKFSNIVKENMENAYFKDSQGVSVFLSYENPKEIAKNIDKSVKLNNGKSILTMCPLYERILRKGVVLEIKKMDIHKISENEIYEILNFF,not soluble
21,KNTPVRMRGTLQDITERTKIEDSLLLSEERYRSFIQNFTGIAFQQDEDLNLEFVKGNVEEITGYSEEELMSKKRWRKIVEKQDLPLFLKKEREIKNARSPYSGKLSYRIRCKDGKIKWVHEVYQKIPGKN,not soluble
22,MKNTFVYQAEKPVIKLLQITDPHLFKDESAELLGVNTQASFAQVLKEIQQENNEFDVILATGDLVQDSSDEGYIRFVEMMKPFNKPVFWIPGNHDFQPKMAEFLNQPPMNAAKHLLLGEHWQALLLDSQVYGVPHGQLSQHQLDLLKETLGKNPERYTLVVLHHHLLPTNSAWLDQHNLRNSHELAEVLAPFTNVKAILYGHIHQEVNSEWNGYQVMATPATCIQFKPDCQYFSLDTLQPGWREIELHSDGSIRTEVKRIQQAEFFPNMQEEGY,not soluble
23,TNAKASKRVYITFTGYDKKPSIDNLKKLDMSITSNPSKCTHLIAPRILRTSKFLCSIPYGPCVVTMDWINSCLKTHEIVDEEPYLLNDPEKELELGCTLESALKRARAQGPSLLEDYVVYLTSKTVAPENVPAVISIVKSNGGVCSTLNVYNKRLARHLEDGNVVLITCNEDSHIWTNFLDNASQNKTIFLQNYDWLIKTVLRQEIDVNDRIADEFARAV,soluble
